This note sets out measurements from paper PMC5797941.

The target in this data set is T1, His6-SlyA (Escherichia coli K-12 MG1655?) (UniProt P0A8W3).
T1 sequence: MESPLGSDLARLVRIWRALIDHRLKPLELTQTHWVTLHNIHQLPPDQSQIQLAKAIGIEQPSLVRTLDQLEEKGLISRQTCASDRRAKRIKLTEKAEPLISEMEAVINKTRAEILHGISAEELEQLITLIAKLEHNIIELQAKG
Description: EMSA. Conditions: 20 µl: 10 mM Tris/HCl pH 7.5, 50 mM KCl, 1 mM DTT, poly(dI-dC) (1 µg), ~1 nM biotin-DNA, 0-500 nM SlyA, 25 °C, 30 min.

“GATGGGGATAAGCAGAGCGCTTATCCCCGGCAAAGAGCAATAACCCTTCTGCGATCCCTGCCGCCTTCGTCAAAAGTATCGACGGGGATCGCTACCAGATTAACCCGAATCGGCATGGAGTCAACGACGG (double strand) [sgcA-sgcQ intergenic region]”: the binding entry is on record as “no binding”.

On to “GATGTATGTTCTAATAAAATAGATTGGGTGGGTTGTATATTGACGTTAGTATAAATAGTATTAATGCCGCTTGCATGAATCAAGCAAAATTTATTTATATTAGTAATATGTATTTAATTAATAAATACATACATTATTTTTATGATTAAGGATAATCAATAATTAAAACAGGAAGTTCT (double strand) [gspA-gspC intergenic region]”, for which the DNA binding entry is “binds”.

Take “GCAAGCACCTTAAAATCACCATCATACACTAAATCAGTAAGTTGGCAGCATTACCGAAATCCCCATCCTTTAGGGCAGTGAGGATGTCAATAATAGCAGACCACATCATGAGTCATTCTGACCGACACATGCCAGAAGCAGAGGCTCCATCCCATTTTATACCTACCTTATAACACTTAGAAAAACAACATGTTAAAAATGTCTATTGGAAACAATTTTATTTCCAATTGTAATGATAACCATTCTCATATTAATATGACTACGTGATAATTAACTTTTGATGCACTCCGC (double strand) [fecI-insA-7 intergenic region]”: the DNA binding entry was “binds”.

Turning to “TGTTGCTAATAGTTAAATCGCGAATCATAAAAAGCAAAGGATCTTTTAACGAAATGTTAACTATGCGATCTGTATAGCAACTGCGGAAAACATTAATGCACTGATAAATAATGATTTATAAAAATAGGGTGCGAAATCCGTCACAGTTCAAACATACAAAATTTGTGATTTTACTTAACTATTGTGTAACTTTCATAAAACAATGTGATTCGTGTTTTTAATTAATTCACGAAAACTGGAATCGTAAAGGTGATGAC (double strand) [paaA-paaZ intergenic region]”, the DNA binding result is reported as “binds”.
